Legend:
[1] = target: Aβ1-42 peptide, monomer-enriched preparation; experiment: ELISA assay 1, Ab 1:1 of 0.5 µg/ml
[2] = target: Aβ1-42 peptide, oligomer-enriched preparation; experiment: ELISA assay 1, Ab 1:1 of 0.5 µg/ml
[3] = target: Aβ1-42 peptide, monomer-enriched preparation; experiment: ELISA assay 1, Ab 1:2 of 0.5 µg/ml
[4] = target: Aβ1-42 peptide, oligomer-enriched preparation; experiment: ELISA assay 1, Ab 1:2 of 0.5 µg/ml
[5] = target: Aβ1-42 peptide, oligomer-enriched preparation; experiment: ELISA assay 1, Ab 1:4 of 0.5 µg/ml
[6] = target: Aβ1-42 peptide, monomer-enriched preparation; experiment: ELISA assay 1, Ab 1:8 of 0.5 µg/ml
[7] = target: Aβ1-42 peptide, oligomer-enriched preparation; experiment: ELISA assay 1, Ab 1:8 of 0.5 µg/ml
[8] = target: Aβ1-42 peptide, monomer-enriched preparation; experiment: ELISA assay 2, Ab 1:1 of 0.5 µg/ml
[9] = target: Aβ1-42 peptide, oligomer-enriched preparation; experiment: ELISA assay 2, Ab 1:1 of 0.5 µg/ml
[10] = target: Aβ1-42 peptide, monomer-enriched preparation; experiment: ELISA assay 2, Ab 1:2 of 0.5 µg/ml
[11] = target: Aβ1-42 peptide, oligomer-enriched preparation; experiment: ELISA assay 2, Ab 1:2 of 0.5 µg/ml
[12] = target: Aβ1-42 peptide, monomer-enriched preparation; experiment: ELISA assay 2, Ab 1:4 of 0.5 µg/ml
[13] = target: Aβ1-42 peptide, oligomer-enriched preparation; experiment: ELISA assay 2, Ab 1:4 of 0.5 µg/ml
[14] = target: Aβ1-42 peptide, oligomer-enriched preparation; experiment: ELISA assay 2, Ab 1:8 of 0.5 µg/ml
[15] = target: Aβ1-42 peptide, monomer-enriched preparation; experiment: ELISA assay 3, Ab 1:1 of 0.5 µg/ml
[16] = target: Aβ1-42 peptide, oligomer-enriched preparation; experiment: ELISA assay 3, Ab 1:1 of 0.5 µg/ml
[17] = target: Aβ1-42 peptide, monomer-enriched preparation; experiment: ELISA assay 3, Ab 1:2 of 0.5 µg/ml
[18] = target: Aβ1-42 peptide, oligomer-enriched preparation; experiment: ELISA assay 3, Ab 1:2 of 0.5 µg/ml
[19] = target: Aβ1-42 peptide, monomer-enriched preparation; experiment: ELISA assay 3, Ab 1:4 of 0.5 µg/ml
[20] = target: Aβ1-42 peptide, oligomer-enriched preparation; experiment: ELISA assay 3, Ab 1:4 of 0.5 µg/ml
[21] = target: Aβ1-42 peptide, oligomer-enriched preparation; experiment: ELISA assay 3, Ab 1:8 of 0.5 µg/ml
[22] = target: Aβ1-42 peptide, monomer-enriched preparation; experiment: ELISA assay 1, Ab 1:16 of 0.5 µg/ml
[23] = target: Aβ1-42 peptide, oligomer-enriched preparation; experiment: ELISA assay 1, Ab 1:16 of 0.5 µg/ml
[24] = target: Aβ1-42 peptide, monomer-enriched preparation; experiment: ELISA assay 1, Ab 1:32 of 0.5 µg/ml
[25] = target: Aβ1-42 peptide, oligomer-enriched preparation; experiment: ELISA assay 1, Ab 1:32 of 0.5 µg/ml
[26] = target: Aβ1-42 peptide, monomer-enriched preparation; experiment: ELISA assay 1, Ab 1:64 of 0.5 µg/ml
[27] = target: Aβ1-42 peptide, oligomer-enriched preparation; experiment: ELISA assay 1, Ab 1:64 of 0.5 µg/ml
[28] = target: Aβ1-42 peptide, monomer-enriched preparation; experiment: ELISA assay 2, Ab 1:16 of 0.5 µg/ml
[29] = target: Aβ1-42 peptide, oligomer-enriched preparation; experiment: ELISA assay 2, Ab 1:16 of 0.5 µg/ml
[30] = target: Aβ1-42 peptide, monomer-enriched preparation; experiment: ELISA assay 2, Ab 1:32 of 0.5 µg/ml
[31] = target: Aβ1-42 peptide, oligomer-enriched preparation; experiment: ELISA assay 2, Ab 1:32 of 0.5 µg/ml
[32] = target: Aβ1-42 peptide, monomer-enriched preparation; experiment: ELISA assay 2, Ab 1:64 of 0.5 µg/ml
[33] = target: Aβ1-42 peptide, oligomer-enriched preparation; experiment: ELISA assay 2, Ab 1:64 of 0.5 µg/ml
[34] = target: Aβ1-42 peptide, monomer-enriched preparation; experiment: ELISA assay 3, Ab 1:16 of 0.5 µg/ml
[35] = target: Aβ1-42 peptide, oligomer-enriched preparation; experiment: ELISA assay 3, Ab 1:16 of 0.5 µg/ml
[36] = target: Aβ1-42 peptide, monomer-enriched preparation; experiment: ELISA assay 3, Ab 1:32 of 0.5 µg/ml
[37] = target: Aβ1-42 peptide, oligomer-enriched preparation; experiment: ELISA assay 3, Ab 1:32 of 0.5 µg/ml
[38] = target: Aβ1-42 peptide, monomer-enriched preparation; experiment: ELISA assay 3, Ab 1:64 of 0.5 µg/ml
[39] = target: Aβ1-42 peptide, oligomer-enriched preparation; experiment: ELISA assay 3, Ab 1:64 of 0.5 µg/ml
[40] = target: Aβ1-42 peptide, high molecular weight (HMW) proto-fibrillar (PF) oligomer enriched preparation (human); experiment: ELISA on coated fraction, Ab 1 µg/ml
Sequence of Aβ1-42 peptide, high molecular weight (HMW) proto-fibrillar (PF) oligomer enriched preparation (human) (peptide, as listed by the source, form in doubt): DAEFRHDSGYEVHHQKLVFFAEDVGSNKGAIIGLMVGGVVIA

[41] = target: Aβ1-42 peptide, low molecular weight (LMW) monomer preparation (human); experiment: ELISA on coated fraction, Ab 1 µg/ml
Sequence of Aβ1-42 peptide, low molecular weight (LMW) monomer preparation (human) (peptide, as listed by the source, form in doubt): as above

[42] = target: Aβ1-42 peptide, monomer-enriched preparation; experiment: ELISA assay 1, Ab 1:128 of 0.5 µg/ml

Sequence of Aβ1-42 peptide, oligomer-enriched preparation (peptide, as listed by the source, form in doubt): as above
Sequence of Aβ1-42 peptide, monomer-enriched preparation (peptide, as listed by the source, form in doubt): as above

O.D. [1]: 3.67 O.D.
O.D. [2]: 3.36 O.D.
O.D. [3]: 3.3 O.D.
O.D. [4]: 3.39 O.D.
O.D. [5]: 3.1 O.D.
O.D. [6]: 2.67 O.D.
O.D. [7]: 2.73 O.D.
O.D. [8]: 3.77 O.D.
O.D. [9]: 3.67 O.D.
O.D. [10]: 3.48 O.D.
O.D. [11]: 3.55 O.D.
O.D. [12]: 3.29 O.D.
O.D. [13]: 3.37 O.D.
O.D. [14]: 2.99 O.D.
O.D. [15]: 4.04 O.D.
O.D. [16]: 3.89 O.D.
O.D. [17]: 4 O.D.
O.D. [18]: 3.83 O.D.
O.D. [19]: 3.52 O.D.
O.D. [20]: 3.64 O.D.
O.D. [21]: 3.23 O.D.
O.D. [22]: 1.78 O.D.
O.D. [23]: 1.78 O.D.
O.D. [24]: 1.18 O.D.
O.D. [25]: 1.27 O.D.
O.D. [26]: 0.81 O.D.
O.D. [27]: 0.93 O.D.
O.D. [28]: 1.94 O.D.
O.D. [29]: 1.92 O.D.
O.D. [30]: 1.34 O.D.
O.D. [31]: 1.3 O.D.
O.D. [32]: 0.94 O.D.
O.D. [33]: 0.88 O.D.
O.D. [34]: 2.23 O.D.
O.D. [35]: 2.07 O.D.
O.D. [36]: 1.54 O.D.
O.D. [37]: 1.4 O.D.
O.D. [38]: 1.08 O.D.
O.D. [39]: 0.95 O.D.
O.D. [40]: 2.55 O.D.
O.D. [41]: 2.68 O.D.
O.D. [42]: 0.64 O.D.
Substance: 6E10 control antibody
